16 molecules from patent publication US20240101668A1 (WUGEN, published 2024) can be followed below.

The target in one assay is T1, huCLL1-K244-Avi-Tev-His (human, UniProt Q5QGZ9 65-265).
T1 construct: extracellular domain
T1 sequence (looked up): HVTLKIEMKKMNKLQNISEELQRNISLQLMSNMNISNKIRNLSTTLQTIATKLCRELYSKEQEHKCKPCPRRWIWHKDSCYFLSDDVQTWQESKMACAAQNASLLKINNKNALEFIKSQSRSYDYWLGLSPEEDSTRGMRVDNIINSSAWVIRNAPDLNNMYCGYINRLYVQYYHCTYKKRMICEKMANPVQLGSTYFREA
As to the kind of experiment: BLI. For orientation: In BLI a coated tip is dipped into the sample, and binding shifts an interference pattern.

In the next assay the target is T2, huCLL1-Q244-Avi-Tev-His (human, UniProt Q5QGZ9 65-265).
T2 construct: extracellular domain; also called CLL-1 K244Q
T2 sequence (looked up): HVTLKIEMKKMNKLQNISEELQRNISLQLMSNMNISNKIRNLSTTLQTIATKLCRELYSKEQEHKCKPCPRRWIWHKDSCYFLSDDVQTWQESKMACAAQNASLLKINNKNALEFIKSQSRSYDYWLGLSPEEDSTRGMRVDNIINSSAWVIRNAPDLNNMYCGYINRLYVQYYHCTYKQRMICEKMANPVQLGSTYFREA
As to the kind of experiment: BLI.

The target in assay [1] is T3, huCD33-G69-Fc recombinant protein (human, UniProt P20138 18-259).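 Further: biolayer interferometry: scFvs captured from periplasmic extracts on anti-V5-loaded streptavidin biosensors, antigen association for 2 min, buffer dissociation for 5 min, 1:1 Langmuir fit giving off-rate.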
T3 construct: extracellular domain; also called CD33 R69G
T3 sequence (P20138 18-259 R69G): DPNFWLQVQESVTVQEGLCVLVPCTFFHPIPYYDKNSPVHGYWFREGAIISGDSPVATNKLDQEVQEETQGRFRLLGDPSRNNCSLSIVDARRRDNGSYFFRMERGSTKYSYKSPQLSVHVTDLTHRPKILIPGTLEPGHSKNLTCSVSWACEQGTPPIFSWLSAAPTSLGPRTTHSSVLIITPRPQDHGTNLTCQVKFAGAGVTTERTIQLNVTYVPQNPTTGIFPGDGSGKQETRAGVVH
Nature of the assay: BLI.

In assay [2] the target is T4, huCD33-R69 stably expressed on Jurkat cells (human, UniProt P20138 18-364).
T4 construct: whole, on cells; >200,000 receptors per cell; also called CD33 WT; CD33^ARG69
T4 sequence (P20138 18-364): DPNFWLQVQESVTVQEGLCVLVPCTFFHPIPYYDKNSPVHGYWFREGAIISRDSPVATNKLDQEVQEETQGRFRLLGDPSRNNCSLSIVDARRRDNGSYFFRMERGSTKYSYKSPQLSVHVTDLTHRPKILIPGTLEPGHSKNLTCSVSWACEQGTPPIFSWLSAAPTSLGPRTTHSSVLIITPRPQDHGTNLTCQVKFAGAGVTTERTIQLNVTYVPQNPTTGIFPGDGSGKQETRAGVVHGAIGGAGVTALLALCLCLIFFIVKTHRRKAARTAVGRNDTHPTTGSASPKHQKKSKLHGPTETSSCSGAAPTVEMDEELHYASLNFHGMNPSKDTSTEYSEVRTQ
Nature of the assay: FACS on cells.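 Further: fixed Jurkat lines probed with myc-tagged scFv periplasmic extracts, anti-myc PE flow cytometry, PE MFI fold binned − <2, + 2–10, ++ 10–30, +++ >30.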
Experimental: (§1) Jurkat cells were engineered to stably express either the huCD33-R69 or huCD33-G69 variant at >200,000 receptors per cell. Parental, huCD33-R69, and huCD33-G69 Jurkat cell lines were stained with differing levels of CellTrace Violet Cell Proliferation Kit (ThermoFisher, cat. #C34557) to barcode each cell line. Barcoded Jurkat cell lines were fixed with paraformaldehyde and incubated with myc-labeled scFv periplasmic extracts and a secondary anti-myc PE-conjugated monoclonal antibody. Appropriate positive and negative controls were used. Stained cells were analyzed by flow cytometry (CytoFLEX, Beckman Coulter, Inc.) and binding was assessed by change in PE mean fluorescence intensity (MFI) of the barcoded cell populations.
(§2) Data is disclosed below in Table 16c, reporting FACS fold change over parental as (−), indicating <2 fold; (+), indicating 2-10 fold; (++), indicating 10-30 fold; and (+++), indicating >30 fold.

Assay [3] concerns the target T5, huCD33-G69 stably expressed on Jurkat cells (human, UniProt P20138 18-364).
T5 construct: whole, on cells; >200,000 receptors per cell; also called CD33 Mutant; CD33 R69G
As to the kind of experiment: FACS on cells.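 Further: fixed Jurkat lines probed with myc-tagged scFv periplasmic extracts, anti-myc PE flow cytometry, PE MFI fold binned − <2, + 2–10, ++ 10–30, +++ >30.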
Experimental: as §1, §2

T5 sequence (P20138 18-364 R69G): as the sequence (P20138 18-364) above, with R52G counted along it

B1: Polypeptide No. 186 (scFv, V domains shown)
VH: QVQLVQSGAEVKKPGASVKVSCKASGYTFTKYYMHWVRQAPGQGLEWMGWINPNSGNTGYAQKFQGRVTMTRDTSTSTVYMELSSLRSEDTAVYYCARDIAVAGSTYYYYGMDVWGQGTTVTVSS
VL: DIQMTQSPSSLSASVGDRVTITCQASQDISNYLNWYQQKPGKAPKLLIYDATNLETGVPSRFSGSGSGTDFTLTISSLQPEDFATYYCQQSYSTPPTFGGGTKVEIKR
notes: scFv
Turning to B1, the binding result with huCLL1-K244-Avi-Tev-His and in the assay with huCLL1-Q244-Avi-Tev-His was “binds” in each case.

B2: Polypeptide No. 198 (scFv, V domains shown)
VH: EVQLLESGGGLVQPGGSLRLSCAASGFTFSTFWMSWVRQAPGKGLEWVATISYDGSNQYYADSVKGRFTISRDNSKNTLYLQMNSLRAEDTAVYYCARLELHEGRFDYWGQGTLVTVSS
VL: DIQMTQSPSSLSASVGDRVTITCRASQSISSYLNWYQQKPGKAPKLLIYDASNLETGVPSRFSGSGSGTDFTLTISSLQPEDFATYYCQQANSFPFTFGPGTKVDIKR
notes: scFv
B2: the binding result is “binds” with huCLL1-K244-Avi-Tev-His and “no binding” in the assay with huCLL1-Q244-Avi-Tev-His.

B3: Polypeptide No. 200 (scFv, V domains shown)
VH: QVQLVQSGAEVKKPGASVKVSCKASGYTFTDYYMHWVRQAPGQGLEWMGWMNPNSGNTGYAQKFQGRVTMTRDTSTSTVYMELSSLRSEDTAVYYCAADDTKSPYGMDVWGQGTMVTVSS
VL: DIQMTQSPSSLSASVGDRVTITCQASQDISNYLNWYQQKPGKAPKLLIYEASSLQSGVPSRFSGSGSGTDFTLTISSLQPEDFATYYCQQTYSPPPTFGQGTKLEIKR
notes: scFv
Consider B3, for which the binding result with huCLL1-K244-Avi-Tev-His is on record as “binds”; with huCLL1-Q244-Avi-Tev-His, “no binding”.

B4: Polypeptide No. 194 (scFv, V domains shown)
VH: QVQLVQSGAEVKKPGASVKVSCKASGVTFSNSGINWVRQAPGQGLEWMGWMNPASGDTGYAQKFQGRVTMTRDTSTSTVYMELSSLRSEDTAVYYCARGEYGAEYFQHWGQGTLVTVSS
VL: DIQMTQSPSSLSASVGDRVTITCRASQSISSWLAWYQQKPGKAPKLLIYDASSLESGVPSRFSGSGSGTDFTLTISSLQPEDFATYYCQQSHSLPPTFGQGTRLEIKR
notes: scFv
Take B4: the binding result in the assay with huCLL1-K244-Avi-Tev-His and with huCLL1-Q244-Avi-Tev-His was “binds” each time.

B5: Polypeptide No. 190 (scFv, V domains shown)
VH: EVQLLESGGGLVQPGGSLRLSCAASGFTFSSSWMHWVRQAPGKGLEWVSTINTNGDAAYYADSVKGRFTISRDNSKNTLYLQMNSLRAEDTAVYYCARDTVLDDYGDYDDYGMDVWGQGTTVTVSS
VL: EIVMTQSPATLSVSPGERATLSCRASQSVSSSYLAWYQQKPGQAPRLLIYGASTRAAGIPARFSGSGSGTEFTLTISSLQSEDFAVYYCQQYGSSPFTFGPGTKVDIKR
notes: scFv
With B5, the binding result with huCLL1-K244-Avi-Tev-His and with huCLL1-Q244-Avi-Tev-His was “binds” each time.

B6: Polypeptide No. 93 (scFv, V domains shown)
VH: QVQLVQSGAEVKKPGASVKVSCKASGYSFTNYDISWVRQAPGQGLEWMGWVNPNSGNTGYAQKFQGRVTMTRDTSTSTVYMELSSLRSEDTAVYYCAKDAPYYYDSSGYYGVFDYWGQGTLVTVSS
VL: DIVMTQSPLSLPVTPGEPASISCRSSQSLLHSNGYNYLDWYLQKPGQSPQLLIYAASSLQSGVPDRFSGSGSGTDFTLKISRVEAEDVGVYYCMQALQTPLTFGQGTRLEIKR
notes: scFv
As to B6, in assay [1], the binding result is “binds”. Further, the “FACS geometric mean fold change over Jurkat parental” value (“FACS geometric mean fold change” for short) in assay [2] and in assay [3] was 2 to 10 fold throughout.

B7: Polypeptide No. 94 (scFv, V domains shown)
VH: QVQLVQSGAEVKKPGASVKVSCKASGYTFTTYDINWVRQAPGQGLEWMGWISGYNGNTGYAQKFQGRVTMTRDTSTSTVYMELSSLRSEDTAVYYCAKDMGYGDYPDAFDIWGQGTMVTVSS
VL: DIVMTQSPLSLPVTPGEPASISCRSSQSLLHSNGYNYLDWYLQKPGQSPQLLIYAASTLQSGVPDRFSGSGSGTDFTLKISRVEAEDVGVYYCMQALQIPITFGQGTKVEIKR
notes: scFv
With B7, the binding result in assay [1] is recorded as “binds”. Also, the entries for the “FACS geometric mean fold change” value in assay [2] and in assay [3] were 2 to 10 fold and 10 to 30 fold, respectively.

B8: Polypeptide No. 185 (scFv, V domains shown)
VH: EVQLLESGGGLVQPGGSLRLSCAASGFTFSNSDMYWVRQAPGKGLEWVSAISGSDGTTYYADSVKGRFTISRDNSKNTLYLQMNSLRAEDTAVYYCARDDYGDQGFDLWGRGTLVTVSS
VL: DIQMTQSPSSLSASVGDRVTITCRASQDIRNDLGWYQQKPGKAPKLLIYDASNLQTGVPSRFSGSGSGTDFTLTISSLQPEDFATYYCQQSYNMPYTFGQGTKLEIKR
notes: scFv
With B8, the binding result with huCLL1-K244-Avi-Tev-His and in the assay with huCLL1-Q244-Avi-Tev-His was “binds” each time.

B9: Polypeptide No. 195 (scFv, V domains shown)
VH: QVQLVQSGAEVKKPGASVKVSCKASGYTFTNSYIHWVRQAPGQGLEWMGIINPSGDSTTYAQKFQGRVTMTRDTSTSTVYMELSSLRSEDTAVYYCAKPTTGDGMDVWGQGTTVTVSS
VL: DIQMTQSPSSLSASVGDRVTITCRASQGISNWLAWYQQKPGKAPKLLIYDASNLETGVPSRFSGSGSGTDFTLTISSLQPEDFATYYCQQSYSTPLTFGGGTKVEIKR
notes: scFv
With B9, the binding result in the assay with huCLL1-K244-Avi-Tev-His and with huCLL1-Q244-Avi-Tev-His was “binds” each time.

B10: Polypeptide No. 188 (scFv, V domains shown)
VH: EVQLLESGGGLVQPGGSLRLSCAASGFTFSSYGMHWVRQAPGKGLEWVSYTSSSSSTIYYADSVKGRFTISRDNSKNTLYLQMNSLRAEDTAVYYCARGNVGDNWNDDEAFLGWGQGTLVTVSS
VL: DIQMTQSPSSLSASVGDRVTITCQASQDISNYLNWYQQKPGKAPKLLIYDASNLETGVPSRFSGSGSGTDFTLTISSLQPEDFATYYCQQTYDTPYTFGQGTKLEIKR
notes: scFv
For B10, the binding result with huCLL1-K244-Avi-Tev-His and with huCLL1-Q244-Avi-Tev-His was “binds” throughout.

B11: Polypeptide No. 187 (scFv, V domains shown)
VH: EVQLLESGGGLVQPGGSLRLSCAASGFTFSSYDMHWVRQAPGKGLEWVSSISSSSSYIYYADSVKGRFTISRDNSKNTLYLQMNSLRAEDTAVYYCARDIDDVAGDYWGQGTLVTVSS
VL: DIQMTQSPSSLSASVGDRVTITCQASQDISNYLNWYQQKPGKAPKLLIYGASSLQSGVPSRFSGSGSGTDFTLTISSLQPEDFATYYCQQSYSTPFTFGQGTKLEIKR
notes: scFv
On to B11, for which the binding result with huCLL1-K244-Avi-Tev-His and with huCLL1-Q244-Avi-Tev-His was “binds” in each case.

B12: Polypeptide No. 196 (scFv, V domains shown)
VH: QVQLVQSGAEVKKPGASVKVSCKASGYTLTNYYMHWVRQAPGQGLEWMGWISPTDGKTKYAQKFQGRVTMTRDTSTSTVYMELSSLRSEDTAVYYCTTDLLGDWFDPWGQGTLVTVSS
VL: DIQMTQSPSSLSASVGDRVTITCRASRSIRSYLNWYQQKPGKAPKLLIYDASNLETGVPSRFSGSGSGTDFTLTISSLQPEDFATYYCQQSYNTPWTFGQGTKVEIKR
notes: scFv
As for B12, the binding result in the assay with huCLL1-K244-Avi-Tev-His was “no binding”; in the assay with huCLL1-Q244-Avi-Tev-His it was “binds”.

B13: Polypeptide No. 92 (scFv, V domains shown)
VH: QVQLVQSGAEVKKPGASVKVSCKASGYTFTNHYMHWVRQAPGQGLEWMGIINPSGGSTSYAQKFQGRVTMTRDTSTSTVYMELSSLRSEDTAVYYCASAEVGATHYGMDVWGQGTTVTVSS
VL: DIVMTQSPLSLPVTPGEPASISCRSSQSLLHSNGYNYLDWYLQKPGQSPQLLIYAASSLQSGVPDRFSGSGSGTDFTLKISRVEAEDVGVYYCMQALHPPTFGQGTKVEIKR
notes: scFv
Turning to B13, the binding result in assay [1] is recorded as “binds”. Further, the “FACS geometric mean fold change” value in assay [2] and in assay [3] was 2 to 10 fold throughout.

B14: Polypeptide No. 189 (scFv, V domains shown)
VH: EVQLLESGGGLVQPGGSLRLSCAASGLTAGSNYMSWVRQAPGKGLEWVSAISDDGHWTDYADSVKGRFTISRDNSKNTLYLQMNSLRAEDTAVYYCVKDDGEGSGIDWGQGTLVTVSS
VL: DIQMTQSPSSLSASVGDRVTITCRASQGISDYLAWYQQKPGKAPKLLIYGASSLQSGVPSRFSGSGSGTDFTLTISSLQPEDFATYYCQQSYSTPWTFGPGTKVDIKR
notes: scFv
As to B14, the binding result with huCLL1-K244-Avi-Tev-His and with huCLL1-Q244-Avi-Tev-His was “binds” throughout.

B15: Polypeptide No. 197 (scFv, V domains shown)
VH: QVQLVQSGAEVKKPGASVKVSCKASGYTLTNNWMHWVRQAPGQGLEWMGWMNPNSGNTGYAQKFQGRVTMTRDTSTSTVYMELSSLRSEDTAVYYCATATADDAFDIWGQGTMVTVSS
VL: DIQMTQSPSSLSASVGDRVTITCRASQSISTWLAWYQQKPGKAPKLLIYGASSLQSGVPSRFSGSGSGTDFTLTISSLQPEDFATYYCQQSYDIPITFGPGTKVDIKR
notes: scFv
For B15, the binding result in the assay with huCLL1-K244-Avi-Tev-His and in the assay with huCLL1-Q244-Avi-Tev-His was “binds” each time.

B16: Polypeptide No. 199 (scFv, V domains shown)
VH: QVQLVQSGAEVKKPGASVKVSCKASGDTFTGYHIHWVRQAPGQGLEWMGWMNPDSGSTGYAQKFQGRVTMTRDTSTSTVYMELSSLRSEDTAVYYCTTDRLYGDYFDYWGQGTLVTVSS
VL: DIQMTQSPSSLSASVGDRVTITCRASQSVSSWLAWYQQKPGKAPKLLIYDASSLQSGVPSRFSGSGSGTDFTLTISSLQPEDFATYYCQQANSFPFTFGPGTKVDIKR
notes: scFv
B16: the binding result is on record as “binds” in the assay with huCLL1-K244-Avi-Tev-His and “no binding” with huCLL1-Q244-Avi-Tev-His.
